T1: cellular hUPF1 (human, UniProt Q92900-2 1-1118, limits assumed)
T1 construct: Endogenous protein detected by western blotting
T1 sequence (looked up): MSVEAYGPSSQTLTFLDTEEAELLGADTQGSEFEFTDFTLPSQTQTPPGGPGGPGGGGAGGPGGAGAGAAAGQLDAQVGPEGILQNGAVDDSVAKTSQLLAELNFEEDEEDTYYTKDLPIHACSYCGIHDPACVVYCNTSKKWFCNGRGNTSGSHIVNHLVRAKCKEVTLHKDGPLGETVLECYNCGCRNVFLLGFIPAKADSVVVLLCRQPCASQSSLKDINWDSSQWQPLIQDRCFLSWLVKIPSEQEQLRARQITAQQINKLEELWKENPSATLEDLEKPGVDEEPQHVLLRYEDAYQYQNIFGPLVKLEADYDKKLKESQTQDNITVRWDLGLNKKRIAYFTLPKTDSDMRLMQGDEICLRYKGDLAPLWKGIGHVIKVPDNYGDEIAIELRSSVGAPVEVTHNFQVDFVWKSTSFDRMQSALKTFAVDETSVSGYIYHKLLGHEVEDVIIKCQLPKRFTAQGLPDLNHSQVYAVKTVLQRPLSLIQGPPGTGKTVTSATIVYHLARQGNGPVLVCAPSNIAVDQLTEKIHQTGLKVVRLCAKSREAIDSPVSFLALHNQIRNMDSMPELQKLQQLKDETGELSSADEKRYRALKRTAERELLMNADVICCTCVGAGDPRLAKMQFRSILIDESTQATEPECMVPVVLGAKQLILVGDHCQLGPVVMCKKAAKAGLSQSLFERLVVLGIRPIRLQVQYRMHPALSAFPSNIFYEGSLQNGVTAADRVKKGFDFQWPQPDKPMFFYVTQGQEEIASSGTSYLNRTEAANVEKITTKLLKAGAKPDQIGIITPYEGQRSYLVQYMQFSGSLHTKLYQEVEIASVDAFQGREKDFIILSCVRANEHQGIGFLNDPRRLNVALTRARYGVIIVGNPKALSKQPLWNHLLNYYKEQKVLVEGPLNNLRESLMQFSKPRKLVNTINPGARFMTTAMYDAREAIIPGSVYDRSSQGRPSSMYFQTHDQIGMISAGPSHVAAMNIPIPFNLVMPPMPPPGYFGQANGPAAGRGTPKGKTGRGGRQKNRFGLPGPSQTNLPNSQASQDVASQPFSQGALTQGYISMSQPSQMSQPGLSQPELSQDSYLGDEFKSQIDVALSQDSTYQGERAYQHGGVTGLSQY

T2: mRFP-‘RBD’5 (human, UniProt O95793-2 407-476)
T2 construct: domain: ‘RBD’5; also called monomeric red fluorescence protein-‘RBD’5; product of pmRFP-hSTAU1-‘RBD’5; not shown: N-terminal mRFP (monomeric DsRed derived from pDsRed-Express-C1) with vector linker
T2 sequence (looked up): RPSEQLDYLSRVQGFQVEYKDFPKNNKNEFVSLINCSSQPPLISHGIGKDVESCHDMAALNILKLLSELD

T3: calnexin (UniProt P27824 21-592)
T3 construct: Specificity control
T3 sequence (looked up): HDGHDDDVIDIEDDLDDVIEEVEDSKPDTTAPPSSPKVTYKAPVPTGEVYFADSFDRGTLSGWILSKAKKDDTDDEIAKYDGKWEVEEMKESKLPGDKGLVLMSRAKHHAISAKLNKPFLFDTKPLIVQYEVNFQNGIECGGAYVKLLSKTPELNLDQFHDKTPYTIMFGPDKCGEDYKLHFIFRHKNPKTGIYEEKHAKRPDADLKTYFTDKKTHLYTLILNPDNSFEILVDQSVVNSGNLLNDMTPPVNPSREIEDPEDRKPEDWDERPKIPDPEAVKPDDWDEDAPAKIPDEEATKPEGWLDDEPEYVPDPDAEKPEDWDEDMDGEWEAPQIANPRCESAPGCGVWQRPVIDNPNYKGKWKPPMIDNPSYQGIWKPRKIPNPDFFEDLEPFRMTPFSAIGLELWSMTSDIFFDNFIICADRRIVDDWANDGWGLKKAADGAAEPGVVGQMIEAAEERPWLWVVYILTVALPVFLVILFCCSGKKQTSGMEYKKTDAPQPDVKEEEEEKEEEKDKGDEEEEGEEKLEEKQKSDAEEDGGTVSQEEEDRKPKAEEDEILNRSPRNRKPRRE

T4: mRFP-SSM-‘RBD’5 (human, UniProt D2GVP7 455-564 (Ailuropoda melanoleuca entry), N-terminal mRFP fusion is not carried in the letters.)
T4 construct: Expressed in HEK293T cells; also called monomeric red fluorescence protein-SSM-‘RBD’5; product of pmRFP-hSTAU1-SSM-‘RBD’5; not shown: N-terminal mRFP (monomeric DsRed from a pDsRed-Express-C1 derivative) and the vector-encoded linker
T4 sequence: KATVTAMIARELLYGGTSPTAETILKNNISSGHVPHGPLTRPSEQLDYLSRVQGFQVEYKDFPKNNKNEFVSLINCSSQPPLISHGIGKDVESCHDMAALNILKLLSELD


Legend:
[1] = target: T1, cellular hUPF1; experiment: anti-GFP co-IP from HEK293T lysates with RNase A, western blotting
[2] = target: T2, mRFP-‘RBD’5; experiment: as above
[3] = target: T3, calnexin; experiment: co-immunoprecipitation with anti-GFP from HEK293T lysates in the presence of RNase A; western blot alpha-Calnexin (control for IP specificity)
Source text: Western blotting (WB) using the specified antibody, where calnexinservesto control for IP specificity. Results are representative of three independently performed experiments.
Human embryonic kidney (HEK)293T cells were transiently transfected with a mixture of two plasmids: (i) pEGFP-‘RBD’5, which produces monomeric enhanced green fluorescence protein (EGFP)-‘RBD’5 and either pmRFP-SSM-‘RBD’5 or pmRFP-‘RBD’5, which produce monomeric red fluorescence protein (mRFP)—SSM-‘RBD’5 or mRFP-‘RBD’5, respectively; or (ii) pEGFP-SSM-‘RBD’5 and either pmRFP-SSM-‘RBD’5 or pmRFP-‘RBD’5 (FIG. 1D, upper). […] Cell lysates were immunoprecipitated in the presence of RNase A using anti-GFP or, to control for nonspecific immunoprecipitation (IP), mouse(m)IgG.

[4] = target: T4, mRFP-SSM-‘RBD’5; experiment: anti-GFP co-IP from HEK293T lysates with RNase A, western blotting
[5] = target: T1, cellular hUPF1; experiment: co-immunoprecipitation with anti-GFP from HEK293T lysates in the presence of RNase A; western blot alpha-UPF1

binding result [1]	binding result [2]	binding result [3]	binding result [4]	binding result [5]	Binder
no binding	no binding	no binding			EGFP-‘RBD’5 (other, human, UniProt O95793-2 407-476, looked up, domain: ‘RBD’5; also called monomeric enhanced green fluorescence protein-‘RBD’5; product of pEGFP-hSTAU1-‘RBD’5; not shown: N-terminal monomeric EGFP from pEGFP-C3 with vector linker) RPSEQLDYLSRVQGFQVEYKDFPKNNKNEFVSLINCSSQPPLISHGIGKDVESCHDMAALNILKLLSELD
		no binding	binds	no binding	EGFP-SSM-‘RBD’5 (other, human, UniProt O95793-2 367-476, looked up, range 367-476; Expressed in HEK293T cells; tested in lysates with RNase A; also called monomeric enhanced green fluorescence protein-SSM-‘RBD’5; product of pEGFP-hSTAU1-SSM-‘RBD’5; not shown: N-terminal monomeric EGFP from pEGFP-C3 (BD Biosciences Clontech) with vector linker) KATVTAMIARELLYGGTSPTAETILKNNISSGHVPHGPLTRPSEQLDYLSRVQGFQVEYKDFPKNNKNEFVSLINCSSQPPLISHGIGKDVESCHDMAALNILKLLSELD
